Source: patent publication US9169496B2, “Method for the enzymatic production of butadiene” (Scientist of Fortune, S.A., priority 2011, dated 2015)

B1: E. coli: purified 4-methyl-5-(2-hydroxyethyl)thiazole kinase from Escherichia coli (SEQ ID NO:2) (protein)
chain: MQVDLLGSAQSAHALHLFHQHSPLVHCMTNDVVQTFTANTLLALGASPAMVIETEEASQFAAIASALLINVGTLTQPRAQAMRAAVEQAKSSQTPWTLDPVAVGALDYRRHFCHELLSFKPAAIRGNASEIMALAGIANGGRGVDTTDAAANAIPAAQTLARETGAIVVVTGEMDYVTDGHRIIGIHGGDPLMTKVVGTGCALSAVVAACCALPGDTLENVASACHWMKQAGERAVARSEGPGSFVPHFLDALWQLTQEVQA
modifications: E. coli
B2: Rh. leguminosarum: purified 4-methyl-5-(2-hydroxyethyl)thiazole kinase from Rhizobium leguminosarum (SEQ ID NO:3) (protein, listed as Rhizobium leguminosarum)
chain: MQTRTTPGAMLKAMREKPPLVQCITNYVAMNIAANVLLAAGASPAMVHAAEEAGEFAAIASALTINIGTLSTQWIDGMQAAAKAATSAGKPWVLDPVAHYATAFRRNAVAELLALKPTIIRGNASEIIALAGGESRGQGVDSRDPVEQAEGSARWLAERQRAVVAVTGAVDFVTDGERAVRIEGGSALMPQVTALGCSLTCLVGAFAATAPEDIFGATVAALSTFAIAGEEAALGAAGPGSFSWRFLDALAALDAETLDARARISAA
B3: B. subtilis: purified 4-methyl-5-(2-hydroxyethyl)thiazole kinase from Bacillus subtilis (SEQ ID NO:1) (protein, listed as Bacillus subtilis)
chain: MDAQSAAKCLTAVRRHSPLVHSITNNVVTNFTANGLLALGASPVMAYAKEEVADMAKIAGALVLNIGTLSKESVEAMIIAGKSANEHGVPVILDPVGAGATPFRTESARDIIREVRLAAIRGNAAEIAHTVGVTDWLIKGVDAGEGGGDIIRLAQQAAQKLNTVIAITGEVDVIADTSHVYTLHNGHKLLTKVTGAGCLLTSVVGAFCAVEENPLFAAIAAISSYGVAAQLAAQQTADKGPGSFQIELLNKLSTVTEQDVQEWATIERVTVS
B4: Short chain alcohol dehydrogenase-like protein from Marinobacter manganoxydans (SEQ ID NO: 14): short-chain dehydrogenase from Marinobacter manganoxydans (Uniprot G6YQS9) (protein)
chain: MNYFLTGGTGFIGRFLVEKLLARGGTVHVLVREQSQDKLDKLRERWGADETQVKAVIGDLTSKNLGIDAKTMKALKGKIDHFFHLAAVYDMGADEEAQQATNIEGTRAAVNAAEAMGAKHFHHVSSIAAAGLFKGIFREDMFEEAEKLDHPYLRTKHESEKVVREECKVPFRIYRPGMVIGHTATGEMDKVDGPYYFFKMIQKIRHALPQWVPTIGVEGGRLNIVPVDFVVNAMDHIAHLEGEDGKCFHLVDTDPYKVGEILNIFSEAGHAPRMGMRIDSRMFGFIPPFIRQSLKNLPPVKRLTSAILDDMGIPPSVMSFINYPTRFDARETERVLKGTGIEVPRLPDYAPVIWDYWERNLDPDLFKDRTLKGTVEGRVCVVTGATSGIGLATAQKLADAGAILVIGARKLERLKEVAAELESRGASVHAYPCDFSDMDACDEFVKTVLDNHGQVDVLVNNAGRSIRRSLDLSFDRFHDFERTMQLNYFGSVRLIMGFAPKMLENRRGHVVNISSIGVLTNAPRFSAYVASKSALDAFSR
modifications: Marinobacter manganoxydans
B5: Short chain alcohol dehydrogenase-like protein from Hahella chejuensis: short-chain dehydrogenase from Hahella chejuensis (Uniprot Q2SCE0; SEQ ID NO: 17) (protein, listed as Hahella chejuensis)
chain: MNYFVTGGTGFIGRFLVPKLLKRGGTVYLLVREASLPKLDELRERWNASDEQVVGVVGDLAQPMLGVSEKDAAMLRGKVGHFFHLAAIYDMQASAESQEQANIEGTRNAVKLADSLKAACFHHVSSIAAAGLYRGIFREDMFEEAEKLDNPYLRTKHESEKVVREECQTPWRVYRPGMVVGHSKTGEIDKIDGPYYFFKLIQKLRSALPQWMPTVGLEGGRINIVPVDFVVDAMDHIAHAEGEDGKCFHLTDPDPYKVGEILNIFAEAGHAPKMAMRIDARMFGFIPPMIRQGIARLPPVQRMKNAVLNDLGIPDEVMSFINYPTRFDNRETERLLKGTAIAVPRLQDYSPAIWDYWERHLDPDLHKDRTLRGAVEGRVCVITGATSGIGLSAARKLAEAGAKVVIAARTLEKLQEVKKELEELGGEVYEYSVDLSDLEDCDRFVANVLKDLGHVDVLVNNAGRSIRRSIQHAFDRFHDFERTMQLNYFGSLRLIMGFAPSMLERRRGHIVNISSIGVLTNAPRFSAYVASKAALDAFSRCAAAEFSDKNVTFTTINMPLVRTPMISPTKIYDSVPTLTPEEAADLVAEAIIHRPKRIATRLGVFAQVLHSMAPKFSEIIMNTGFKMFPDSSAATGGKDGEKPKVSTEQVAFAAIMRGIHW
B6: Short chain alcohol dehydrogenase-like protein from Marinobacter algicola (SEQ ID NO: 16): short-chain dehydrogenase from Marinobacter algicola (Uniprot A6EUH6) (protein)
chain: MNYFLTGGTGFIGRFLVEKLLARGGTVHVLVREQSQEKLDKLRERWGADESRVKAVIGDLTSPNLGIDAKTMKSLKGNIDHFFHLAAVYDMGADEKSQQATNIEGTHSAVNAAAAMEAGCFHHVSSIAAAGLFKGTFREDMFEEAEKLDHPYLLTKHESEKVVRESCKVPFRIYRPGMVVGHSKTGEMDKVDGPYYFFKMIQKIRHALPQWVPTIGIEGGRLNIVPVDFVVNAMDHIAHLKGEDGNCFHLVDSDPYKVGEILNIFSEAGHAPRMAMRIDSRMFGFVPPFIRQSLKNLPPVKRLTTALLDDMGIPPSVLSFINYPTRFDARETERVLKDTGIVVPRLESYAAVLWDFWERNLDPDLFKDRTLRGTVEGKVCVITGGTSGIGLATAQKLADAGAILVIGARKKERLMEVAAELEARGGNVHAYQCDFADMDDCDRFVKTVLDNHGHVDVLVNNAGRSIRRSLALSFDRFHDFERTMQLNYFGSVRLIMGFAPAMLERRRGHVVNISSIGVLTNAPRFSAYVASKSALDTFSRCAAAEWSDRNVTFTTINMPLVKTPMIAPTKIYDSVPTLTPDEAAEMVADAIVYRPKRIATRLGIFAQVMQALAPKMGEIVMNTGYRMFPDSPAAAGSRSGAKPKVSSEQVAFAAIMRGIYW
modifications: Marinobacter algicola DG893
B7: Short chain alcohol dehydrogenase-like protein from Marinobacter sp. ELB17 (SEQ ID NO: 15): short-chain dehydrogenase from Marinobacter sp. ELB17 (Uniprot A3JCC5) (protein)
chain: MNYFVTGGTGFIGRFLIARLLARGAIVHVLVREQSVQKLADLREKLGADEKQIKAVVGDLTAPGLGLDKKTLKQLSGKIDHFFHLAAIYDMSASEESQQAANIDGTRAAVAAAEALGAGIFHHVSSIAVAGLFKGTFREDMFAEAGKLDHPYFSTKHESERVVRDECKLPFRIYRPGMVIGDSATGEMDKVDGPYYFFKMIQKIRGALPQWVPTIGLEGGRLNIVPVNFVADALDHIAHLPDEDGKCFHLVDSDPYKVGEILNIFCEAGHAPKMGMRIDSRMFGFVPPFIRQSLKNLPPVKRMGRALLDDLGIPASVLSFINYPTRFDARETERVLQGTGIEVPRLPDYAPVIWDYWERNLDPDLFTDRTLRGTVEGKVCVVTGATSGIGLATAEKLADAGAILVIGARTQETLDQVSAQLNARGADVHAYQCDFADMDACDRFIQTVSENHGAVDVLINNAGRSIRRSLDKSFDRFHDFERTMQLNYFGSLRLIMGFAPAMLERRRGHIINISSIGVLTNAPRFSAYVASKAALDSFSRCAAAEWSDRHVCFTTINMPLVKTPMIAPTKIYDSVPTLSPEEAADMVVNAIVYRPKRIATRMGVFAQVLNAVAPKASEILMNTGYKMFPDSMPKKGKEVSAEKGASTDQVAFAAIMRGIHW
modifications: Marinobacter sp. ELB17

Experiment: Screening for crotyl alcohol phosphorylation activity (pyruvate kinase/lactate dehydrogenase coupled ADP assay)
Format: biochemical
Details: 50 mM crotyl alcohol (cis and trans mixture), 5 mM ATP, 0.05 mg/ml enzyme, 37° C., pH 7.5
Protocol: The release of ADP that is associated with crotyl alcohol phosphorylation was quantified using the pyruvate kinase/lactate dehydrogenase coupled assay (FIG. 5). The purified 4-methyl-5-(2-hydroxyethyl)thiazole kinases from Escherichia coli (SEQ ID NO:2), Bacillus subtilis (SEQ ID NO:1), Rhizobium leguminosarum (SEQ ID NO:3) were evaluated for their ability to phosphorylate crotyl alcohol releasing ADP. The studied enzymatic reaction was carried out under the following conditions at 37° C.: • 50 mM Tris-HCl pH 7.5 • 10 mM MgCl2 • 100 mM KCl • 5 mM ATP • 0.4 mM NADH • 1 mM Phosphoenolpyruvate • 3 U/ml Lactate dehydrogenase • 1.5 U/ml Pyruvate kinase • 50 mM crotyl alcohol, mixture cis and trans • The pH was adjusted to 7.5
Each assay was started by addition of a particular enzyme at a concentration 0.05 mg/ml and the disappearance of NADH was monitored by following the absorbance at 340 nm.
With B1 the “Activity, micromole/min · mg protein” value was 0.220 micromole/min · mg protein.
For B2, the “Activity, micromole/min · mg protein” value was 0.087 micromole/min · mg protein.
With B3 the “Activity, micromole/min · mg protein” value was 0.014 micromole/min · mg protein.

Same assay, conditions: 50 mM crotyl alcohol, 37° C.
In the case of B1, the “ADP production in the presence of crotyl alcohol” value is reported as “reproducible and significant increase in ADP production”.
For B2, the “ADP production in the presence of crotyl alcohol” value was “reproducible and significant increase in ADP production”.

Experiment: Crotonyl-CoA reductase assay, NADPH decrease at 340 nm
Format: biochemical
Details: 5 mM trans crotonyl-CoA, 0.1-0.4 mM NADPH, 0.5-1 mg/ml enzyme, 37° C., pH 7.5
Description: Sequences of short-chain dehydrogenases/reductases inferred from the genomes of prokaryotic organisms were generated by oligonucleotide concatenation to fit the codon usage of E. coli. […] The genes thus synthesized were cloned in a pET25b expression vector and the proteins were produced according to the protocol described in Example 1.
In the case of B4, the “Activity, μmol/min/mg protein” value is reported as 7.5 μmol/min/mg protein.
For B5, the “Activity, μmol/min/mg protein” value was 4.9 μmol/min/mg protein.
In the case of B6, the “Activity, μmol/min/mg protein” value is reported as 4 μmol/min/mg protein.
For B7, the “Activity, μmol/min/mg protein” value was 1.2 μmol/min/mg protein.
